Test results reported in article PMC3589475, “Large-Scale Functional Purification of Recombinant HIV-1 Capsid” (PLoS ONE, 2013).
pKd: −log10 of the molar value.

Assays:
[1] = target: HIV-1 capsid (CA) (Human immunodeficiency virus 1) (UniProt O93182); settings: cited from earlier work
[2] = target: wild-type HIV-1 capsid protein (WT CA) (HIV-1 (pLAI.2)) (UniProt P03348); experiment: AUC; sedimentation velocity, WT CA at 0.94, 1.88, 3.75 and 7.5 µM, 50 mM sodium phosphate pH 7.5, 25°C, 45,000 rpm; monomer to dimer, at high protein concentration
[3] = target: quadruple mutant (A14C/E45C/W184A/M185A) CA monomer (CA 4Mu) (HIV-1 (NL4-3 strain)); experiment: AUC; sedimentation velocity, cross-linked CA 4Mu hexamer at 4.13, 8.25 and 16.5 µM (as monomers), 50 mM sodium phosphate pH 7.5, 25°C, 45,000 rpm, no reducing agent

## HIV-1 capsid (CA) (from UniProt O93182)
[1]
  pKd: 4.85

## wild-type HIV-1 capsid protein (WT CA) (from UniProt P03348 133-363) (natural protein)
[2]
  stoichiometry N: 2

## quadruple mutant (A14C/E45C/W184A/M185A) CA monomer (CA 4Mu) (natural protein)
[3]
  percent in hexameric form: 94%
  stoichiometry N: 6
